Data taken from US20230038638A1, “COMPLEMENT FACTOR I-RELATED COMPOSITIONS AND METHODS” (published 2023).

Tests used:
[1] = target: soluble human C3b (human) (UniProt P01024)
human C4b (human) = target: T1, human C4b (human) (UniProt P0C0L4)
T1 sequence: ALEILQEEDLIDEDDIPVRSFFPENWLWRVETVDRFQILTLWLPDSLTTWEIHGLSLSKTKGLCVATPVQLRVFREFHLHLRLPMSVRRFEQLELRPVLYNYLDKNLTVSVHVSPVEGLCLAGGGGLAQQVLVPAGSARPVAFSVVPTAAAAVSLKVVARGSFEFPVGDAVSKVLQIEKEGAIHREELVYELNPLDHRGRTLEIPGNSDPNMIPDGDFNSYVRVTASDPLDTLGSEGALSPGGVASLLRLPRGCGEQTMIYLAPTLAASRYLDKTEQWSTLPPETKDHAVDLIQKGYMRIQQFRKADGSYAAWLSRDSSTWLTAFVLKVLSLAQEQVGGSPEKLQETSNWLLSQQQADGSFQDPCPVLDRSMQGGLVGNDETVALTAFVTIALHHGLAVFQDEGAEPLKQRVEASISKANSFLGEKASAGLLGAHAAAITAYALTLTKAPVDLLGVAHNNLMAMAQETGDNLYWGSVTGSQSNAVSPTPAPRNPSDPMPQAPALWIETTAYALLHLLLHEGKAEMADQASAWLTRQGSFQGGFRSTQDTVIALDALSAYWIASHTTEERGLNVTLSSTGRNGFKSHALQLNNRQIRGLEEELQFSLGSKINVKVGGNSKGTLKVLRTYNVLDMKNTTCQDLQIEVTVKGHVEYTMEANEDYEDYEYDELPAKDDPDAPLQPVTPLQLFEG

Chain of CFI-HSA fusion WT; GGSSGG (SEQ ID NO: 6); CR1(ccp15); fH(ccp2); fH(ccp3); fH(ccp4) (P17927 other isoform, or with tags, fused parts or gaps limits assumed): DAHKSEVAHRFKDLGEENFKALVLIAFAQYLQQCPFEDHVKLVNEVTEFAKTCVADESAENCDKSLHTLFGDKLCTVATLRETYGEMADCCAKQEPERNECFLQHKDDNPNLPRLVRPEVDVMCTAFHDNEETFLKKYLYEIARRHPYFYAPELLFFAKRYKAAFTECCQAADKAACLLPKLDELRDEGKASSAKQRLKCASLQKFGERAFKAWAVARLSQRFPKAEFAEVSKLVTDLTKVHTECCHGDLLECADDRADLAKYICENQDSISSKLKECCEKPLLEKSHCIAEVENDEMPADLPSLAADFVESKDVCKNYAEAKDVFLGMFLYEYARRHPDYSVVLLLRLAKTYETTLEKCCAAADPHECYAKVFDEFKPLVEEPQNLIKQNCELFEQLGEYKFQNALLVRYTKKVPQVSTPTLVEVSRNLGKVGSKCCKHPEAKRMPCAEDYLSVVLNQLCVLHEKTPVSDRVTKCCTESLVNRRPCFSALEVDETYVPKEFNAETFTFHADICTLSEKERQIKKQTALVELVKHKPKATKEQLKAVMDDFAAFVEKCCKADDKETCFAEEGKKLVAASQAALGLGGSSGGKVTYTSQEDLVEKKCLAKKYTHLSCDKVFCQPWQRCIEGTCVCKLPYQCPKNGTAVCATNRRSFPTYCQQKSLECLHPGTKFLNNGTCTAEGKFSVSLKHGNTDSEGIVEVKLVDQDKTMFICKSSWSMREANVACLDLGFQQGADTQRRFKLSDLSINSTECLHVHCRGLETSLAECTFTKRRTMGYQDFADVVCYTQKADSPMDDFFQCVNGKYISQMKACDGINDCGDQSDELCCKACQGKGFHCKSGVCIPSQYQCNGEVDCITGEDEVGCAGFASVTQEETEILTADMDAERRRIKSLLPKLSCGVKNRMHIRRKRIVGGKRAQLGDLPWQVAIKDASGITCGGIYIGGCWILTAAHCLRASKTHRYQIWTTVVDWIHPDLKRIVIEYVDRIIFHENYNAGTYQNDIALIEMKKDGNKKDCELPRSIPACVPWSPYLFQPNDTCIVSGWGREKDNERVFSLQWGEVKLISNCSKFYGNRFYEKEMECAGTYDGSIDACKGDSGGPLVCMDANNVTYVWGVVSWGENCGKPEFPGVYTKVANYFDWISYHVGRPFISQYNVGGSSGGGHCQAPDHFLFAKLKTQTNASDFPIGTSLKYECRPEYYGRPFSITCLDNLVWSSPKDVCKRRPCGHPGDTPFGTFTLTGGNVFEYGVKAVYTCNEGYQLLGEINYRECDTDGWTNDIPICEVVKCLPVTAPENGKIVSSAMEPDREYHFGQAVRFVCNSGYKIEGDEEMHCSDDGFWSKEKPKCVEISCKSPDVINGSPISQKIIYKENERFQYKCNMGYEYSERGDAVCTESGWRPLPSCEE

Row | iC3b Screen Ref Fold (fold of reference) [1] | C4b Screen Ref Fold (fold of reference) (human C4b (human)) | iC3b Screen Ref Fold (fold of CFI-HSA wild type) [1] | C4b Screen Ref Fold (fold of CFI-HSA wild type) (human C4b (human)) | Substance
1 | 0.71 | 0.11 |  |  | CFI-HSA variant K458A (enzyme)
2 | -0.01 | 0.09 |  |  | CFI-HSA variant W381A (enzyme)
3 |  |  | 0 | 0.31 | CFI-HSA D506H (enzyme)
4 |  |  | -0.02 | 0.26 | CFI-HSA N531G; P535A; S507A (enzyme)
5 |  |  | -0.02 | 0.47 | CFI-HSA D506Q (enzyme)
6 |  |  | -0.01 | 0.04 | CFI-HSA Y408L; N531G; E457G; E461Q; R462K; F464Y; S507A (enzyme)
7 | 0.01 | 2.57 |  |  | CFI-HSA fusion WT; GGSSGG (SEQ ID NO: 6); CR1(ccp15); CR1(ccp16); CR1(ccp17); fH(ccp4) (from UniProt P17927) (enzyme)
8 |  |  | 0.96 | 4.82 | CFI-HSA E457G; R462K; F464Y (enzyme)
9 | 0.4 | -0.02 |  |  | CFI-HSA variant T346K; K504D; E530K (enzyme)
10 |  |  | 1.45 | 6.13 | CFI-HSA N531G; E461Q (enzyme)
11 |  |  | 1.54 | 6.74 | CFI-HSA E457G; E461Q; R462K (enzyme)
12 |  |  | 0.13 | 0.02 | CFI-HSA variant D425K; E530F; F537K; K504R (enzyme)
13 | 0.94 | 0.31 |  |  | CFI-HSA variant E461G (enzyme)
14 |  |  | -0.04 | -0.01 | CFI-HSA variant E461Q; S507A (enzyme)
15 |  |  | 0.36 | 3.18 | CFI-HSA variant R557A; N531M; Y403F; K504Y; E457N; E461Q (enzyme)
16 | -0.01 | 0.15 |  |  | CFI-HSA variant K340G (enzyme)
17 | 0.91 | 2.94 |  |  | CFI-HSA variant N531Y (enzyme)
18 | 0.56 | 0 |  |  | CFI-HSA variant L304G; P305G; K306G; L307G; S308G (enzyme)
19 |  |  | 0.08 | 0.33 | CFI-HSA P535N (enzyme)
20 | 0.01 | -0.05 |  |  | CFI-HSA variant W381A; ΔP384 (enzyme)
21 | 0.75 | 0.68 |  |  | CFI-HSA variant G406A; Y408L (enzyme)
22 |  |  | 0.28 | 2.29 | CFI-HSA variant R557A; N531M; Y403F; K504Y; E457N; E461L (enzyme)
23 |  |  | 1.17 | 6.13 | CFI-HSA N531G; R462K (enzyme)
24 |  |  | 0.77 | 1.24 | CFI-HSA P535R (enzyme)
25 |  |  | 1.19 | 5.72 | CFI-HSA Y408L; N531G; R462K; F464Y (enzyme)
26 |  |  | 0.04 | 0.07 | CFI-HSA variant D425K; Y408M; E530F; F537K; P558S (enzyme)

Row | iC3b Screen Ref Fold (fold of reference) [1] | C4b Screen Ref Fold (fold of reference) (human C4b (human)) | iC3b Screen Ref Fold (fold of CFI-HSA wild type) [1] | C4b Screen Ref Fold (fold of CFI-HSA wild type) (human C4b (human)) | Substance
27 |  |  | 0.58 | 2.14 | CFI-HSA P535S (enzyme)
28 | 0.96 | 0.57 |  |  | CFI-HSA variant T346K (enzyme)
29 |  |  | -0.04 | -0.05 | CFI-HSA variant E457G; E461Q; N531G; S507A (enzyme)
30 | 0.35 | 0.5 |  |  | CFI-HSA variant V390G (enzyme)
31 |  |  | 0.17 | 0.4 | CFI-HSA P535T (enzyme)
32 |  |  | 0.09 | 0.16 | CFI-HSA variant D425K; E530F; F537K; K504R; P558S (enzyme)
33 |  |  | 1.53 | 0.07 | CFI-HSA variant D425K; Y408M; E530F; P558S (enzyme)
34 |  |  | 0.95 | 3.89 | CFI-HSA K534M (enzyme)
35 |  |  | -0.01 | 0.12 | CFI-HSA Y408L; S507A; N531G (enzyme)
36 |  |  | 1.12 | 4.89 | CFI-HSA Y408L; E530K; N531G (enzyme)
37 | 0.85 | 1.83 |  |  | CFI-HSA variant R314A (enzyme)
38 | -0.01 | 1.44 |  |  | CFI-HSA fusion WT; GGSSGG (SEQ ID NO: 6); CR1(ccp15); fH(ccp2); fH(ccp3); fH(ccp4) (from UniProt P17927) (enzyme)
39 |  |  | 0.05 | 0.03 | CFI-HSA D506N (enzyme)
40 | -0.01 | 0.04 |  |  | CFI-HSA variant W381G; V390G (enzyme)
41 |  |  | -0.01 | 0.01 | CFI-HSA E457G; S507A (enzyme)
42 |  |  | 0.29 | 0.04 | CFI-HSA T346K; Y408L; K504D; E530K; N531G (enzyme)
43 |  |  | 1.31 | 1.14 | CFI-HSA K534A (enzyme)
44 |  |  | 1.79 | 1.9 | CFI-HSA K534H (enzyme)
45 |  |  | 2.11 | 0.22 | CFI-HSA variant D425K; F537K (enzyme)
46 |  |  | -0.04 | -0.09 | CFI-HSA variant F537K; S507A (enzyme)
47 |  |  | -0.01 | 0.12 | CFI-HSA Y408L; E457G; S507A; N531G (enzyme)
48 |  |  | 0.55 | 0.67 | CFI-HSA Y408L; F464Y (enzyme)
49 |  |  | 0.36 | 3.2 | CFI-HSA variant R557A; N531M; Y403F; K504Y; E457N; E461V (enzyme)
50 |  |  | 2.16 | 2.05 | CFI-HSA D425T (enzyme)
51 |  |  | 0.57 | 1.29 | CFI-HSA P535V (enzyme)
52 | 0.95 | 2.62 |  |  | CFI-HSA variant E461F (enzyme)
